B1: human VZV neutralizing mAb 93k [modified: Cy5-conjugated] [human] / VZV glycoprotein B, wild type [varicella-zoster virus (VZV)] (parent complex)
chain 1: QVQLVQSGAEVKKPGSSVKVSCKASGGTFSNFAISWVRQAPGQGLEWMGRIMPLFVTSTYAQKFQGRVTISADASTSTAYMELSSLRSDDTAMYYCARDITAPGAAPTPLNFYGMDVWGQGTTVTVSS
chain 2: DIQMTQSPSTLSASVGDRVTITCRASQTISTWLAWYQQTPRKAPKLMIYKASILENGVPSRFSGSGSGTEFTLTISSLQPEDFATYYCQQYKSYPWTFGQGTKVEI
chain 3: VSPSSFYESLQVEPTQSEDITRSAHLGDGDEIREAIHKSQDAETKPTFYVCPPPTGSTIVRLEPTRTCPDYHLGKNFTEGIAVVYKENIAAYKFKATVYYKDVIVSTAWAGSSYTQITNRYADRVPIPVSEITDTIDKFGKCSSKATYVRNNHKVEAFNEDKNPQDMPLIASKYNSVGSKAWHTTNDTYMVAGTPGTYRTGTSVNCIIEEVEARSIFPYDSFGLSTGDIIYMSPFFGLRDGAYREHSNYAMDRFHQFEGYRQRDLDTRALLEPAARNFLVTPHLTVGWNWKPKRTEVCSLVKWREVEDVVRDEYAHNFRFTMKTLSTTFISETNEFNLNQIHLSQCVKEEARAIINRIYTTRYNSSHVRTGDIQTYLARGGFVVVFQPLLSNSLARLYLQELVRENTNHSPQKHPTRNTRSRRSVPVELRANRTITTTSSVEFAMLQFTYDHIQEHVNEMLARISSSWCQLQNRERALWSGLFPINPSALASTILDQRVKARILGDVISVSNCPELGSDTRIILQNSMRVSGSTTRCYSRPLISIVSLNGSGTVEGQLGTDNELIMSRDLLEPCVANHKRYFLFGHHYVYYEDYRYVREIAVHDVGMISTYVDLNLTLLKDREFMPLQVYTRDELRDTGLLDYSEIQRRNQMHSLRFYDIDKVVQYDSGTAIMQGMAQFFQGLGTAGQAVGHVVLGATGALLSTVHGFTTFLSNPFGALAVGLLVLAGLVAAFFAYRYVLKLKTSPMKALYPLTTKGLKQLPEGMDPFAEKPNATDTPIEEIGDSQNTEPSVNSGFDPDKFREAQEMIKYMTLVSAAERQESKARKKNKTSALLTSRLTGLALRNRRGYSRVRTENVTGV

The record followed here is PMC10693595 (2023).

In one assay the parent is B1. In words: flow cytometry on cells; CHO-DSP1 cells transfected, permeabilized, immunostained with Cy5-conjugated mAb 93k; n = 3; parent: 100; read off a plot. On the technique in general: A flow cytometer gives signals particle by particle.
Take chain 3 H456P: the screen value was about 120 % WT.

chain 3 E455P: the screen value is about 110 % WT.

As to chain 3 V457P, the screen value was about 48 % WT.

The variants in the next assay derive from B1. Described as above. This is another data set of the same source.
For the variant chain 3 H456P, the percent of parent is about 95 % WT.

As to chain 3 E455P, the percent of parent is about 70 % WT.

As for chain 3 V457P, the percent of parent was about 18 % WT.

Variants of B1 are the subject of the next assay. The assay can be described thus: flow cytometry on cells; CHO-DSP1 cells transfected, permeabilized, immunostained with Cy5-conjugated mAb 93k; n = 2; parent: 100; read off a plot.
With chain 3 H456A, the percent of parent is about 98 % WT.

As for chain 3 E455A, the percent of parent is about 110 % WT.

Regarding chain 3 V457A, the percent of parent was about 98 % WT.

The variants in another assay derive from B1. The assay is described as above. The source holds these as a separate data set.
With chain 3 H456A, the screen value is about 120 % WT.

Regarding chain 3 E455A, the screen value is about 120 % WT.

In the case of chain 3 V457A, the screen value is about 120 % WT.
